The text below walks through data of patent US20250011368A1, “DLL3 TARGETING PEPTIDES AND CONSTRUCTS THEREOF” (MARIANA ONCOLOGY INC., priority 2023, published 2025).

Numbered stars: 1 amine (or outer) side, 2 acyl side, 3 side chain; on linkers, the order of the positions; unused ones are H or OH. Bridge positions count the residues as written; N and C are the ends. Square brackets hold non-standard residues; d marks the D form. * marks the point of attachment. Ala(piperidin-4-yl) = O=C([C@H](CC1CCN([*:3])CC1)N[*:1])[*:2]; DOTA = O=C(O)CN1CCN(CC(=O)O)CCN(CC(=O)*)CCN(CC(=O)O)CC1; Trp(5-F) = N[C@@H](Cc1c[nH]c2ccc(F)cc12)C(=O)O; Trp(7-aza) = N[C@@H](Cc1c[nH]c2ncccc12)C(=O)O; Pro(trans-4-F) = O=C(O)[C@@H]1C[C@@H](F)CN1; 2Nal = N[C@@H](Cc1ccc2ccccc2c1)C(=O)O; 4Pal = N[C@@H](Cc1ccncc1)C(=O)O; Cha = N[C@@H](CC1CCCCC1)C(=O)O

Assay [1] deals with DLL3 on CT26.DLL3 cells (Homo sapiens (Human)) (UniProt Q9NYJ7). The assay is described as follows: 177Lu-peptide bound to CT26.DLL3 cells, gamma counting; letter grade, key in paragraph 629.
Assay [2] has as its target T1, Biotinylated human DLL3 (Delta Like Canonical Notch Ligand 3) (human, UniProt Q9NYJ7 27-492, limits assumed, biotinylated (site not stated)).
T1 construct: also called Delta-like protein 3; biotinylated target ligand human DLL3
T1 sequence: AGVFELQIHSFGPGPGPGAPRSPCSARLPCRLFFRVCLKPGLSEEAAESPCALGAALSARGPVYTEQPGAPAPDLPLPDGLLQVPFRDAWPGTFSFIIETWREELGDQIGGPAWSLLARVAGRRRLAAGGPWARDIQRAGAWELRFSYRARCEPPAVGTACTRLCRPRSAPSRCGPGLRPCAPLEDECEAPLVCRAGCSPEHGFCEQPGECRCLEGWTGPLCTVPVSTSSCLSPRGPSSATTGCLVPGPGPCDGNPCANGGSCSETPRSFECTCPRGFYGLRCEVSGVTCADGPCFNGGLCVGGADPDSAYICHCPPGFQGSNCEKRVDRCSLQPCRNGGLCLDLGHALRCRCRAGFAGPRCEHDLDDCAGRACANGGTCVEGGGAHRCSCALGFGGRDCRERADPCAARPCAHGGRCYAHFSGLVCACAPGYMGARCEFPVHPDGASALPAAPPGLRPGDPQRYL
The assay is described as follows: SPR; letter grade, key in paragraph 614. On the procedure: Biotinylated target ligand human DLL3 was immobilized on a streptavidin sensor chip. A reference surface was set up for nonspecific binding and refractive index changes. For analysis of the kinetics of interactions, varying concentrations of samples were injected at a flow rate of 100 μL/minute using running buffer containing 20 mM phosphate buffer with 2.7 mM KCl, 137 mM NaCl, 0.05% Surfactant P20 and 2% DMSO. Sensorgram curves were fitted with 1:1 binding model, and affinity and kinetic parameters were obtained using Biacore Insight evaluation 4.0. software.
(Surface plasmon resonance follows binding to a sensor surface in real time, without labels.)

The target in the next assay is T2, DLL3 on SHP-77 cells (human, UniProt Q9NYJ7 27-618).
T2 construct: SHP-77 cells are human-derived, non-engineered SCLC cells
T2 sequence: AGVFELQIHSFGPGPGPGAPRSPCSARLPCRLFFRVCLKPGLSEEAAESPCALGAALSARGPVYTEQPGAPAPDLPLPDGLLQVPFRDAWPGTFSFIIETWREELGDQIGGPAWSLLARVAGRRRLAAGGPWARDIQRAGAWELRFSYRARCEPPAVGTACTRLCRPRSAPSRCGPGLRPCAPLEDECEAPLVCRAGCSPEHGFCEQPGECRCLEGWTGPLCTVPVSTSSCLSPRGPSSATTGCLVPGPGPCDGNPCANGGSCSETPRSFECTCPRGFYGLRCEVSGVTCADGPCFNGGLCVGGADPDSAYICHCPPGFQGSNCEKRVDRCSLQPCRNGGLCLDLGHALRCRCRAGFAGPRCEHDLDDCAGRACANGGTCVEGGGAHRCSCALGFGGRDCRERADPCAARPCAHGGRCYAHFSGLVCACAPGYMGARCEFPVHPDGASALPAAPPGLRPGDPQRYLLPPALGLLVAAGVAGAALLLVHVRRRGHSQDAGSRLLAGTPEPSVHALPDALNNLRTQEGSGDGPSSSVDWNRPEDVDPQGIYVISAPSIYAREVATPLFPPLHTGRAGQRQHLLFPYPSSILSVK
The assay is described as follows: 177Lu-peptide bound to SHP-77 cells, gamma counting; letter grade, key in paragraph 629. On the procedure:
The study was conducted using SHP-77, CT26.WT, and CT26.DLL3 cells (Table 7) Adherent cell studies: The cells were cultured in appropriate culture media (20 mL) in tissue culture treated T150 flasks at 37° C. and 5% CO2. Adherent cells were detached (60-70% confluent) using 5 mL Versene at 37° C. for 3 minutes. After confirming the viability using countess and count of detached cells using Trypan blue, the cells were centrifuged at 4° C. for 5 minutes (1,000 rpm). The cell pellet obtained was washed once with PBS and resuspended in 1% PBSA to obtain the desired cell concentration (5-25 million cells/mL).
Total uptake: Cells were incubated with 300 μL (0.8 μCi) of the incubation buffer (containing radiolabeled peptide [¹⁷⁷Lu] Lu-test peptide) for 1 hour at 37° C. (Table 8). Post incubation, the cells were pelleted and washed 2 times using cold PBS+1% BSA. The supernatant and washes were combined and counted together as “unbound fraction” in a gamma counter. The cells were then resuspended in 300 μL of 1% PBS+1% BSA and counted in the gamma counter as “bound fraction”.

B1: [177Lu]Lu-labelled Cpd No. 245 (peptide)
peptide: Ac-[Trp(5-F)]T[Cha]CNN[2Nal]HDC[Trp(7-aza)][Pro(trans-4-F)][dK](DOTA)-NH2
modifications: disulfide 4-10; also: 177Lu complexed in the DOTA chelator
For B1, the % Binding in assay [1] is below 25%.

B2: Cpd No. 367 (peptide)
peptide: Ac-WTICNN[2Nal][4Pal]DCWP[dK](DOTA)-NH2
modifications: disulfide 4-10
SMILES: CC[C@H](C)[C@H](NC(=O)[C@@H](NC(=O)[C@H](Cc1c[nH]c2ccccc12)NC(C)=O)[C@@H](C)O)C(=O)N[C@H]1CSSC[C@@H](C(=O)N[C@@H](Cc2c[nH]c3ccccc23)C(=O)N2CCC[C@H]2C(=O)N[C@H](CCCCNC(=O)CN2CCN(CC(=O)O)CCN(CC(=O)O)CCN(CC(=O)O)CC2)C(N)=O)NC(=O)[C@H](CC(=O)O)NC(=O)[C@H](Cc2ccncc2)NC(=O)[C@H](Cc2ccc3ccccc3c2)NC(=O)[C@H](CC(N)=O)NC(=O)[C@H](CC(N)=O)NC1=O
In assay [2], B2 had an equilibrium dissociation constant (Kd) of at most 1 nM.

B3: Cpd No. 252 (peptide)
peptide: Ac-WTICNN[2Nal]HDCWP[dK]-NH2
modifications: disulfide 4-10; not fully specified (residue 13); printed as Ac-W-T-I-C(3)-N-N-(2Nal)-H-D-C(3)-W-P-{D-Lys[PEG8-D-Lys(DOTA)-PEG12-COCH2Ph-4Br]}-NH2, disulfide C(3)-C(3)
With B3, the Kd in assay [2] was at most 1 nM.

B4: [177Lu]Lu-labelled Cpd No. 326 (peptide)
peptide: Ac-WTIC[Ala(piperidin-4-yl)]N[2Nal]KDCWP[dK](DOTA)-NH2
modifications: disulfide 4-10; not fully specified (residue 8); also: 177Lu chelated in DOTA
Consider B4, for which the % Binding (in assay [1]; with DLL3 on SHP-77 cells) was below 25% in each case.

What is called Kd is the constant that tells how readily two partners part at equilibrium.
